The values that follow come from article PMC8887465.

Data set [1] addresses Staphylococcus aureus PemK toxin, wild type (Staphylococcus aureus CH-91 (plasmid pCH91)). Nature of the data set: SEC-MALS. On the technique in general: Size exclusion chromatography separates by hydrodynamic size, large species first.
In the next data set the target is T1, PemK WT (Staphylococcus aureus CH-91 (plasmid …, UniProt L7PFJ6 1-112)).
T1 sequence: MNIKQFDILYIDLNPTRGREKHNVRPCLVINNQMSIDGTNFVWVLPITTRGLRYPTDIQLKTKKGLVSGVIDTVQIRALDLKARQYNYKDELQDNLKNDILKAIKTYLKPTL
Nature of the data set: NMR titration.

A word on the stoichiometry N: it is a count of units in the complex or per binding partner.

In data set [1], “Staphylococcus aureus PemK toxin, wild type (enzyme)” displayed a stoichiometry N of 2.

In the case of UUUAUUAA (ssRNA, deoxyuridine at position 3 (dU3), rest RNA) [ssRNA UUdUAUUAA], the binding result in the data set with PemK WT is recorded as “binds”.
